Measured values from US6222018, “Hypoxia inducible factor-1 and method of use” (The Johns Hopkins University School of Medicine).

Columns and labels:
[1] = target: T1, endogenous HIF-1 in hypoxic Hep3B cells (Homo sapiens, UniProt Q16665;P27540 Q16665:1-826,P27540:2-789); experiment: cell_activity; psvcatEPO2, two copies, 1% vs 20% O2; one copy 4.9-fold; details: chain copies: heterodimer (inferred)
Text: Oligonucleotides were cloned into the BglII and BamHI sites located 5' and 3' to the transcription unit, respectively. Plasmids pNMHcat and pHcat (Concordet et al. (1991) Nucleic Acids Res. 19:4173–4180), containing human aldolase A gene sequences fused directly to CAT coding sequences, were provided by P. Maire. pSVβgal (Promega) contained bacterial lacZ coding sequences driven by the SV40 early region promoter and enhancer. Plasmids were purified by alkaline lysis and two rounds of cesium chloride density gradient centrifugation. Hep3B cells were transfected by electroporation with a Gene Pulser (Bio-Rad) at 260 V and 960 microfarads. Duplicate electroporations were pooled and split onto two 10 cm tissue culture dishes (Corning) containing 8 ml of media. […]
To determine whether these HIF-1 binding sites were of functional importance, transient expression essays were performed using the reporter genes described above. […] Transfected cells were split among duplicate plates that were cultured in 1 or 20% O_2 for 48 h, CAT and β-galactosidase protein synthesized following transcription of reporter and control plasmids, respectively, were quantitated from cellular extracts. […]

[2] = target: T1, endogenous HIF-1 in hypoxic Hep3B cells; experiment: cell_activity; pPGK2svcat, two copies, 1% vs 20% O2; details: chain copies: heterodimer (inferred); 5' GATC overhang
Procedure: (§1) Plasmids were purified by alkaline lysis and two rounds of cesium chloride density gradient centrifugation. Hep3B cells were transfected by electroporation with a Gene Pulser (Bio-Rad) at 260 V and 960 microfarads. Duplicate electroporations were pooled and split onto two 10 cm tissue culture dishes (Corning) containing 8 ml of media. Cells were allowed to recover for 24 h in a 5% CO_2 95% air incubator at 37° C., the media was replaced, and one set of duplicate plates was removed to a modular incubator chamber, which was flushed with 1% O_2, 5% CO_2, balance N_2, sealed, and placed at 37° C. Cells were harvested 72 h after transfection, and extracts were prepared for CAT and β-galactosidase activity.
(§2) To determine whether these HIF-1 binding sites were of functional importance, transient expression essays were performed using the reporter genes described above. Reporter plasmids were cotransfected into Hep3B cells with pSVβgal, which was included as a control for variation in transfection efficiency. Transfected cells were split among duplicate plates that were cultured in 1 or 20% O_2 for 48 h, CAT and β-galactosidase protein synthesized following transcription of reporter and control plasmids, respectively, were quantitated from cellular extracts. […]
(§3) HIF-1 binding site sequences from glycolytic genes were analyzed in the same assay. […]

[3] = target: T1, endogenous HIF-1 in hypoxic Hep3B cells; experiment: cell_activity; pPFKL3svcat, three copies, 1% vs 20% O2; details: chain copies: heterodimer (inferred); 5' GATC overhang
Procedure: as §1, §2, §3

[4] = target: T2, HIF-1 (HIF-1alpha/HIF-1beta (ARNT) heterodimer), affinity-purified (Homo sapiens, UniProt Q16665;P27540 Q16665:1-826,P27540:2-789); experiment: EMSA; competed by unlabeled W18 but not M18; buffer Z-100; details: tags: none; from CoCl2-treated HeLa S3 cells or hypoxic Hep3B cells; chain copies: heterodimer (inferred), higher-order form also seen; 5' gatc overhangs
T2 sequence (Q16665 whole entry, chain 1 of 2): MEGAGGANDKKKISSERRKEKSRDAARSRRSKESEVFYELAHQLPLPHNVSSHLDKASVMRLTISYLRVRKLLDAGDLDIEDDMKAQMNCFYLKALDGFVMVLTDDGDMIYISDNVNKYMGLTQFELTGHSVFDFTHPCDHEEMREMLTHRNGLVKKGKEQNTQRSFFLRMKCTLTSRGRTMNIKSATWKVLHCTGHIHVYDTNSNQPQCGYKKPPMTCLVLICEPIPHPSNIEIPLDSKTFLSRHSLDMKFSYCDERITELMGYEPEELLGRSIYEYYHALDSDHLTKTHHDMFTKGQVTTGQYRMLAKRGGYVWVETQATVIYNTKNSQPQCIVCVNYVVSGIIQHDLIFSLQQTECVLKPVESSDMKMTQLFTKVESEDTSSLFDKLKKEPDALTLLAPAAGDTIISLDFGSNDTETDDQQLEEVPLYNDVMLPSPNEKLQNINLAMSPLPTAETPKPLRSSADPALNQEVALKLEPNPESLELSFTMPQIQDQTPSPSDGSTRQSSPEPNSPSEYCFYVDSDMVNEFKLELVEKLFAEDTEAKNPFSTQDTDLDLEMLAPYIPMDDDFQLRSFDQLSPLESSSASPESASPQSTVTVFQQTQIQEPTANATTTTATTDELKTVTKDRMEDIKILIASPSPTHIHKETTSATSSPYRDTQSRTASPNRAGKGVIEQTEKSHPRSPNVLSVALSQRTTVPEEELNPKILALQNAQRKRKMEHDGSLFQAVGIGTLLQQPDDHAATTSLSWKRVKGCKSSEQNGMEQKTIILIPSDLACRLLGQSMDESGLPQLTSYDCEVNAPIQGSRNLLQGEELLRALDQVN
T2 sequence (P27540 2-789, chain 2 of 2): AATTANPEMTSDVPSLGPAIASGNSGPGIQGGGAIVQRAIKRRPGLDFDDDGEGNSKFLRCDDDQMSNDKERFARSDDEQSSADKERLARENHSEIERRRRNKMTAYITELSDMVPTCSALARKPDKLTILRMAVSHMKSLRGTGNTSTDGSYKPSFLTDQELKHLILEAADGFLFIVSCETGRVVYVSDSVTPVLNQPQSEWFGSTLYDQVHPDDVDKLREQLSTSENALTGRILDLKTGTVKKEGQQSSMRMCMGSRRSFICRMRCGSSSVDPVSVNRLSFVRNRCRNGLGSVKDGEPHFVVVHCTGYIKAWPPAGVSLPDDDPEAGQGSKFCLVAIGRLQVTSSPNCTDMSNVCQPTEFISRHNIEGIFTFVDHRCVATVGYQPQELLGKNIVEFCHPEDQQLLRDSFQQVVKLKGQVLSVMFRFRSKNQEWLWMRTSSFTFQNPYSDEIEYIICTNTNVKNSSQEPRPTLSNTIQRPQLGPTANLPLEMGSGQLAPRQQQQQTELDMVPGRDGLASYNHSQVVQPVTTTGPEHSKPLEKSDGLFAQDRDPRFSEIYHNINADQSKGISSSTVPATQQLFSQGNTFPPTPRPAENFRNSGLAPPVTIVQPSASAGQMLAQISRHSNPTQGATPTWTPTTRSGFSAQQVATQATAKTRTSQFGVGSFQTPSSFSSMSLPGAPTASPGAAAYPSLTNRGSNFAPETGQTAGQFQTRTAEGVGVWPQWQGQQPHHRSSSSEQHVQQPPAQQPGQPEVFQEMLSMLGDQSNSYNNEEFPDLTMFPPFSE
Procedure: Nuclear extracts were fractionated by DEAE-Sepharose chromatography, and fractions containing HIF-1 activity were applied to a W18 DNA affinity column. 5 ug of protein were incubated with 0.1 ug of calf thymus DNA for gel shift analysis of crude nuclear extract (Crude NE, lane 1) and HIF-1 active fractions from DEAE-Sepharose columns (DEAE, lane 2). For fractions from the W18 column (lanes 3–13), 1 ul aliquots were incubated with 5 ng of calf thymus DNA. The positions of the two HIF-1 bands, constitutive activity (C), nonspecific activity (NS), and free probe (F) are indicated. FT, flowthrough, 0.25M, 0.5M, 1M, and 2M are fractions eluted with indicated concentration of KCl in buffer Z. Figure 3B: FIG. 3B is an autoradiograph showing sequence-specific DNA binding of the partially purified fractions described in the legend to FIG. 3A. 5 ug aliquots of fractions from the DEAE-Sepharose column were incubated with W18 probe in the presence of no competitor (lane 1), 10-fold (lanes 2 and 5), 50-fold (lanes 3 and 6), or 250-fold (lanes 4 and 7) molar excess of unlabeled W18 (W, lanes 2–4) or M18 (M, lanes 5–7) oligonucleotide.
Since HIF-1 DNA binding activity from hypoxic Hep3B cells and CoCl_2-treated HeLa cells are indistinguishable (Example 1), HeLa S3 cells treated with 125 uM CoCl_2 were used as starting material for the large scale purification of HIF-1. […]

[5] = target: T2, HIF-1 (HIF-1alpha/HIF-1beta (ARNT) …); experiment: competition; up to 250-fold excess M18 does not compete; HIF-1 flows through M18 column; details: tags: none; from CoCl2-treated HeLa S3 cells or hypoxic Hep3B cells; chain copies: heterodimer (inferred), higher-order form also seen; 5' gatc overhangs

T1 sequence (Q16665 whole entry, chain 1 of 2, the tested form may be a part): as the sequence (Q16665 whole entry, chain 1 of 2) above
T1 sequence (P27540 2-789, chain 2 of 2): as the sequence (P27540 2-789, chain 2 of 2) above

B1: hEPO 3'-FS +3065/+3097 (dsDNA)
DNA 1: GCCCTACGTGCTGTCTCACACAGCCTGTCTGA
DNA 2: TCAGACAGGCTGTGTGAGACAGCACGTAGGGC
activity [1]: 17 fold induction

B2: hPGK1 5'-FS -172/-194 (dsDNA)
DNA 1: GATCGTGAGACGTGCGGCTTCCGTTTG
DNA 2: CAAACGGAAGCCGCACGTCTCACGATC
activity [2]: 5.6 fold induction

B3: mPFKL IVS-1 +336/+361 (dsDNA)
DNA 1: GATCCCGGGTAGCTGGCGTACGTGCTGCAG
DNA 2: CTGCAGCACGTACGCCAGCTACCCGGGATC
activity [3]: 47 fold induction

B4: W18 (hEPO 3'-FS nt 1-18) (dsDNA)
DNA 1: GATCGCCCTACGTGCTGTCTCA
DNA 2: GATCTGAGACAGCACGTAGGGC
binding result [4]: binds

B5: M18 (dsDNA)
DNA 1: GATCGCCCTAAAAGCTGTCTCA
DNA 2: GATCTGAGACAGCTTTTAGGGC
binding result [5]: no binding
